Our source for the Kd and IC50 values is the Immune Epitope Database (IEDB).

In assay [1] the target is HLA-B*18:01. In words: IEDB peptide-MHC binding, purified MHC/direct/fluorescence; filed as Kd, often an IC50 or EC50 that approximates it; ≥ and ≤ were set here for values at or beyond the usual limits of such assays.
The target of assay [2] is HLA-B*40:01. Described as above.
For assay [3], the target named is HLA-B*48:01. The description is as above.
In assay [4] the target is HLA-A*02:01. Put plainly: IEDB peptide-MHC binding, purified MHC/competitive/radioactivity; filed as Kd, often an IC50 or EC50 that approximates it; ≥ and ≤ were set here for values at or beyond the usual limits of such assays. The note with it: source organism: Vaccinia virus WR.
The target of assay [5] is HLA-A*02:02. The assay is described as above.
The target in assay [6] is HLA-A*02:03. Described as above.
Assay [7] deals with HLA-A*02:06. Described as above.
Assay [8] deals with HLA-A*03:01. The assay is described as above.
Assay [9] concerns the target HLA-A*11:01. Described as above.
In assay [10] the target is HLA-A*31:01. The assay is described as above.
Assay [11] addresses HLA-A*33:01. The description is as above.
In assay [12] the target is HLA-A*68:01. The description is as above.
The target in assay [13] is HLA-A*68:02. The assay is described as above.
Assay [14] deals with HLA-B*07:02. Described as above.
Assay [15] concerns the target HLA-B*35:01. Described as above.
Assay [16] deals with HLA-B*51:01. The description is as above.
Assay [17] addresses HLA-B*53:01. Described as above.
Assay [18] deals with HLA-B*54:01. The assay is described as above.
The target in assay [19] is HLA-A*26:01. Put plainly: IEDB peptide-MHC binding, purified MHC/direct/fluorescence; filed as Kd, often an IC50 or EC50 that approximates it; ≥ and ≤ were set here for values at or beyond the usual limits of such assays. The note with it: source organism: Mammarenavirus amapariense.
Assay [20] deals with HLA-A*03:01. Put plainly: IEDB peptide-MHC binding, purified MHC/competitive/fluorescence; ≥ and ≤ were set here for values at or beyond the usual limits of such assays.
Assay [21] has as its target HLA-A*11:01. Described as above.
Assay [22] addresses HLA-A*02:01. The description is as above.
For assay [23], the target named is HLA-A*02:03. In words: IEDB peptide-MHC binding, purified MHC/direct/fluorescence; filed as Kd, often an IC50 or EC50 that approximates it; ≥ and ≤ were set here for values at or beyond the usual limits of such assays. The note with it: source organism: Influenza A virus (A/ruddy turnstone/Delaware/67/1998(H12N4)).
For assay [24], the target named is HLA-A*02:12. Described as above. Particulars: source organism: Influenza A virus (A/ruddy turnstone/Delaware/67/1998(H12N4)).
Assay [25] deals with HLA-A*02:19. The assay is described as above. Particulars: source organism: Influenza A virus (A/ruddy turnstone/Delaware/67/1998(H12N4)).
For assay [26], the target named is HLA-A*11:01. Described as above. The note with it: source organism: Influenza A virus (A/ruddy turnstone/Delaware/67/1998(H12N4)).
Assay [27] addresses HLA-A*68:02. Described as above. The note with it: source organism: Influenza A virus (A/ruddy turnstone/Delaware/67/1998(H12N4)).
For assay [28], the target named is HLA-A*26:01. Put plainly: IEDB peptide-MHC binding, purified MHC/competitive/fluorescence; filed as Kd, often an IC50 or EC50 that approximates it; ≥ and ≤ were set here for values at or beyond the usual limits of such assays. Particulars: source organism: Influenza A virus (A/ruddy turnstone/Delaware/67/1998(H12N4)).
In assay [29] the target is HLA-A*69:01. The assay is described as above. Particulars: source organism: Influenza A virus (A/ruddy turnstone/Delaware/67/1998(H12N4)).
For assay [30], the target named is HLA-B*18:01. The description is as above. The note with it: source organism: Influenza A virus (A/ruddy turnstone/Delaware/67/1998(H12N4)).
In assay [31] the target is HLA-B*27:03. The assay is described as above. Particulars: source organism: Influenza A virus (A/ruddy turnstone/Delaware/67/1998(H12N4)).
Assay [32] has as its target HLA-B*39:01. Described as above. The note with it: source organism: Influenza A virus (A/ruddy turnstone/Delaware/67/1998(H12N4)).
Assay [33] deals with HLA-B*46:01. The assay is described as above. Particulars: source organism: Influenza A virus (A/ruddy turnstone/Delaware/67/1998(H12N4)).
Assay [34] concerns the target HLA-B*51:01. The description is as above. Particulars: source organism: Influenza A virus (A/ruddy turnstone/Delaware/67/1998(H12N4)).
Assay [35] addresses HLA-B*57:01. Described as above. Particulars: source organism: Influenza A virus (A/ruddy turnstone/Delaware/67/1998(H12N4)).
Assay [36] addresses HLA-A*24:02. In words: IEDB peptide-MHC binding, purified MHC/competitive/fluorescence; ≥ and ≤ were set here for values at or beyond the usual limits of such assays. Particulars: source organism: Zaire ebolavirus.
Assay [37] deals with HLA-A*29:02. In words: IEDB peptide-MHC binding, purified MHC/competitive/fluorescence; filed as Kd, often an IC50 or EC50 that approximates it; ≥ and ≤ were set here for values at or beyond the usual limits of such assays.
The target of assay [38] is HLA-B*44:02. In words: IEDB peptide-MHC binding, purified MHC/direct/fluorescence; filed as Kd, often an IC50 or EC50 that approximates it; ≥ and ≤ were set here for values at or beyond the usual limits of such assays. The note with it: source organism: Influenza A virus (A/chicken/CA/375TR/2002(H6N2)).
The target of assay [39] is HLA-B*08:01. Described as above. The note with it: source organism: Yersinia pestis CA88-4125.
Where [40] appears, read: source organism: Burkholderia ambifaria AMMD.
Setting [41] is: source organism: Francisella tularensis subsp. holarctica LVS.
Where [42] appears, read: source organism: Vaccinia virus WR.
Setting [43] is: source organism: Zaire ebolavirus.
The mark [44] stands for this setting: source organism: Sudan ebolavirus.
Setting [45] is: source organism: Vaccinia virus Copenhagen.
[46] abbreviates: source organism: Influenza A virus (A/chicken/CA/375TR/2002(H6N2)).

With AELHAKGAY, the dissociation constant Kd in assay [1] (setting [40]) is 1.12 µM; in assay [2] (setting [40]), at least 20 µM.

For AEVCAHHLF, the figures for the dissociation constant Kd in [1] (setting [41]) and in assay [2] (setting [41]) were 0.0036 µM and 0.0035 µM, respectively.

Consider AEWGWTATM, for which, in [3] (source organism: Giardia lamblia ATCC 50803), the Kd is at least 20 µM.

AFVRFSTDK: the equilibrium dissociation constant (Kd) in [4] was at least 78.1 µM; in assay [5] (setting [42]), at least 77.8 µM; in assay [6] (setting [42]), at least 78.1 µM; in assay [7] (setting [42]) it was at least 77.1 µM; in [8] (setting [42]), at least 25.4 µM; in assay [9] (setting [42]), 8.6 µM. The Kd in [10] (setting [42]) is 3.1 µM; in assay [11] (setting [42]), at least 77.7 µM; in [12] (setting [42]), at least 57.7 µM; in [13] (setting [42]) it was at least 76.9 µM; in assay [14] (setting [42]) it was at least 77.5 µM; in [15] (setting [42]), at least 33.9 µM. The Kd was at least 77.5 µM in assay [16] (setting [42]), at least 78.2 µM in [17] (setting [42]) and at least 78.1 µM in [18] (setting [42]).

In assay [1] (source organism: Vibrio parahaemolyticus), DEYQGNHMF had a dissociation constant Kd of 0.0006 µM.

Regarding EKPGNRNPY, the Kd in [19] amounted to 2.78 µM.

Take FTVVSNGAK: the IC50 in [20] (setting [43]) turned out to be 17.7 µM; in [21] (setting [43]), 1.51 µM.

In the case of GLRKRSRRQ, the IC50 in assay [20] (setting [44]) was found to be 46.4 µM.

For the sequence GLSLLQLPR, the IC50 in [22] (setting [44]) stood at 16.8 µM; in [20] (setting [44]), 2.19 µM; in assay [21] (setting [44]), 3.53 µM.

As to IVFMWAIHH, the dissociation constant Kd in [23] is at least 20 µM; in assay [24], at least 20 µM; in [25], at least 20 µM; in assay [26], 0.187 µM; in assay [27] it was at least 20 µM; in assay [28], at least 20 µM. The Kd in [29], in assay [30], in assay [31], in assay [32], in assay [33] and in assay [34] was at least 20 µM each time. The sequence also showed a Kd in assay [35] of at least 20 µM.

In turn, KFYSKISEY came in with an IC50 in assay [20] (source organism: Human papillomavirus 16) of 3 µM.

Turning to KLYKNKSKQ, the IC50 in [22] (setting [45]) is at least 81.8 µM; in assay [20] (setting [45]), 3.01 µM; in assay [21] (setting [45]), at least 1360 µM.

For the sequence LLPAVSSGK, the IC50 is at least 73.6 µM in [22] (setting [43]), 1.9 µM in [20] (setting [43]), 3.64 µM in assay [21] (setting [43]) and at least 79.6 µM in assay [36].

Consider LMDSIFVST, for which the Kd was 0.000343 µM in assay [5] (setting [45]); 0.232 µM in assay [6] (setting [45]); 0.0312 µM in [7] (setting [45]); at least 78 µM in [8] (setting [45]); at least 77.9 µM in assay [9] (setting [45]); at least 36 µM in assay [10] (setting [45]). Besides, the dissociation constant (Kd) in [11] (setting [45]) was at least 55.3 µM; in [12] (setting [45]) it was at least 77.7 µM; in assay [13] (setting [45]), 1.79 µM; in assay [14] (setting [45]), at least 77.5 µM; in [15] (setting [45]), at least 77.4 µM; in [16] (setting [45]), at least 77.5 µM. For the same sequence, the results for the equilibrium dissociation constant (Kd) in assay [17] (setting [45]) and in assay [18] (setting [45]) were at least 78.2 µM and 5.2 µM, respectively.

Turning to LMISGDLPQ, in [37] (source organism: Sinorhizobium meliloti 1021), the Kd was determined as 0.0373 µM.

Consider MTIHFFLNE, for which the Kd in [37] (source organism: Entamoeba histolytica HM-1:IMSS) amounted to 0.192 µM.

Take REITFHGAK: the Kd was 1.22 µM in assay [1] (setting [46]), 0.412 µM in assay [2] (setting [46]) and at least 20 µM in assay [38].

In turn, RKNGGNFLL gave a Kd in assay [3] (source organism: Campylobacter jejuni subsp. jejuni 81116) of 0.145 µM.

Regarding SMKTRTAWF, the Kd in [39] came to 0.007 µM.

In [37] (source organism: Bacillus anthracis str. CDC 684), STIGYALKH returned a dissociation constant Kd of 0.0394 µM.

For STSDGKHLQ, the Kd in assay [37] (source organism: Cryptosporidium parvum Iowa II) stood at 0.284 µM.

Take VDFGIIWRY: the dissociation constant Kd in [37] (source organism: Vibrio cholerae 2740-80) was 0.1 µM.

As to VTGILQLPR, the half-inhibitory concentration (IC50) was determined as 6.83 µM in [20] (setting [43]) and 0.36 µM in [21] (setting [43]).

In assay [37] (source organism: Vibrio vulnificus YJ016), YDPARYPLY yielded a dissociation constant (Kd) of 0.0305 µM.
